Test [1] deals with T1, HPV33 E6 phospho-PBM peptide p33E6 (human papillomavirus type 33). Nature of the test: FP.
In test [2] the target is T2, HPV35 E6 phospho-PBM peptide p35E6 (human papillomavirus type 35). Nature of the test: FP.
For test [3], the target named is T1, HPV33 E6 phospho-PBM peptide p33E6. Description: FP. This is another data set of the same source.
Test [4] concerns the target T2, HPV35 E6 phospho-PBM peptide p35E6. Description: FP. This is another data set of the same source.
In test [5] the target is T1, HPV33 E6 phospho-PBM peptide p33E6. Nature of the test: FP; +FSC.
Test [6] concerns the target T2, HPV35 E6 phospho-PBM peptide p35E6. Nature of the test: FP; +FSC.
The target of test [7] is T1, HPV33 E6 phospho-PBM peptide p33E6. Description: FP; with FSC.
Test [8] concerns the target T2, HPV35 E6 phospho-PBM peptide p35E6. Description: FP; with FSC.

B1: full-length human 14-3-3ζ fused to the C terminus of MBP (natural protein)
chain: MDKNELVQKAKLAEQAERYDDMAACMKSVTEQGAELSNEERNLLSVAYKNVVGARRSSWRVVSSIEQKTEGAEKKQQMAREYREKIETELRDICNDVLSLLEKFLIPNASQAESKVFYLKMKGDYYRYLAEVAAGDDKKGIVDQSQQAYQEAFEISKKEMQPTHPIRLGLALNFSVFYYEILNSPEKACSLAKTAFDEAIAELDTLSEESYKDSTLIMQLLRDNLTLWTSDTQGDEAEAGEGGEN
In the case of B1, the Kd in test [1] amounted to 2700 nM; in test [2], 191 µM; in test [3], 2720 nM; in test [4], 191 µM; in test [5], 3.9 µM; in test [6], 294 µM. Also, the Kd in test [7] came to 3.94 µM; in test [8] it was 294 µM.
